B1: LOXL2 (parent)
chain: YVEVKEGKTWKQICDKHWTAKNSR

Variants of: B1
Test: protein stability index of a GFP-peptide fusion (GPS, HEK-293T) (PSI 1-6); higher = more stable
Details: c terminus: a fixed tail appended
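Further: lentivirally expressed fusions sorted by FACS into six bins by GFP to DsRed ratio, PSI derived from sequencing read proportions per bin multiplied by bin number.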

Point of comparison: YVEVREGKTWKQICDKHWTAKNSR, protein stability index 3.94. Against it:
- YVEVKEGKTWKIICDKHWTAKNSR — lower, 3.16
- YVEVKEGKTWKCICDKHWTAKNSR — lower, 1.58
- YVEVKEGKTWKAICDKHWTAKNSR — lower, 1.56
- YVEVKEGKTWKRICDKHWTAKNSR — lower, 3.12
- YVEVKEGKTWKWICDKHWTAKNSR — lower, 2.42
- YVEVKEGKTWKMICDKHWTAKNSR — lower, 2.64
- YVEVKEGDTWKQICDKHWTAKNSR — lower, 2.41
- YVEVKEGSTWKQICDKHWTAKNSR — lower, 2.44
- YVEVKEGRTWKQICDKHWTAKNSR — lower, 2.24
- YVEVKEGGTWKQICDKHWTAKNSR — lower, 1.85
- YVEVKEGHTWKQICDKHWTAKNSR — lower, 1.44
- YVEVKEGVTWKQICDKHWTAKNSR — lower, 2.07
- YVEVKEGNTWKQICDKHWTAKNSR — lower, 1.68
- YVEVKEGITWKQICDKHWTAKNSR — lower, 2.67
- YVEVKEGQTWKQICDKHWTAKNSR — lower, 3.07
- YVEVKEGKTWKQICDKHWTAKNDR — lower, 2.41
- YVEVKEGKTWKQICDKHWTAKNNR — lower, 1.71
- YVEVKEGKTWKQICDKHWTAKNPR — lower, 1.94
- YVEVKEGKTWKQICDKHWTAKNMR — lower, 1.97
- YVEVKEGKTWKQICDKHWTAKNCR — lower, 2.73
- YVEVKEGKTWKQICDKHWTAKNHR — lower, 2
- YVEVKEGKNWKQICDKHWTAKNSR — lower, 1.99
- YVEVKEGKFWKQICDKHWTAKNSR — higher, 4.42
- YVEVKEGKEWKQICDKHWTAKNSR — lower, 1.61
- YVEVKEGKVWKQICDKHWTAKNSR — lower, 1.94
- YVEVKEGKGWKQICDKHWTAKNSR — lower, 2.11
- YVEVKEGKLWKQICDKHWTAKNSR — lower, 2.52
- YVEVKEGKRWKQICDKHWTAKNSR — lower, 2.55
- YVEVKEGKTWKQICDKHWTAENSR — lower, 3.16
- YVEVKEGKTWKQICDKHWTAWNSR — lower, 1.96
- YVEVKEGKTWKQICDKHWTAFNSR — lower, 3.06
- YVEVKEGKTWKQICDKHWTAPNSR — lower, 2.67
- YVEVKEGKTWKQICDKHWTALNSR — lower, 1.95
- YVEVNEGKTWKQICDKHWTAKNSR — lower, 1.86
- YVEVSEGKTWKQICDKHWTAKNSR — lower, 1.46
- YVEVPEGKTWKQICDKHWTAKNSR — lower, 1.7
- YVEVTEGKTWKQICDKHWTAKNSR — lower, 2.35
- YVEVEEGKTWKQICDKHWTAKNSR — lower, 1.7
- YVEVLEGKTWKQICDKHWTAKNSR — lower, 2.65
- YVEVCEGKTWKQICDKHWTAKNSR — lower, 1.65
- YVEVWEGKTWKQICDKHWTAKNSR — lower, 2.87
- YVEVKEGKTWKQICDKHWTGKNSR — lower, 1.75
- YVEVKEGKTWKQICDKHWTLKNSR — lower, 2.16
- YVEVKEGKTWKQICDKHWTDKNSR — lower, 2.59
- YVEVKEGKTWKQICDKHWTMKNSR — lower, 2.35
- YVEVKEGKTWKQICDKHWTIKNSR — lower, 1.99
- YVEVKEGKTWKQICDKHWTPKNSR — lower, 1.67
- YVEVKEGKTWKQICDKHWTEKNSR — lower, 1.98
- YVEVKEGKTWKQICDKHWTRKNSR — lower, 2.71
- YVEVKEGKTWKQICDKHWTFKNSR — lower, 1.9
- YVEVKIGKTWKQICDKHWTAKNSR — lower, 1.47
- YVEVKWGKTWKQICDKHWTAKNSR — lower, 2.16
- YVEVKCGKTWKQICDKHWTAKNSR — lower, 3.35
- YVEVKAGKTWKQICDKHWTAKNSR — lower, 2.14
- YVEVKFGKTWKQICDKHWTAKNSR — lower, 2.49
- YVEVKQGKTWKQICDKHWTAKNSR — higher, 4.18
- YVEVKNGKTWKQICDKHWTAKNSR — lower, 2.44
- YVEVKLGKTWKQICDKHWTAKNSR — lower, 2.79
- YVEVKTGKTWKQICDKHWTAKNSR — lower, 2.77
- YVEVKESKTWKQICDKHWTAKNSR — lower, 1.86
- YVEVKERKTWKQICDKHWTAKNSR — lower, 1.62
- YVEVKEIKTWKQICDKHWTAKNSR — lower, 1.85
- YVEVKEEKTWKQICDKHWTAKNSR — lower, 1.7
- YVEVKETKTWKQICDKHWTAKNSR — lower, 1.24
- YVEVKEVKTWKQICDKHWTAKNSR — lower, 2.8
- YVEVKENKTWKQICDKHWTAKNSR — lower, 2.64
- YVEVKEWKTWKQICDKHWTAKNSR — lower, 2.52
- YVEVKEGKTWKQICDKHWTAKNSV — lower, 2.2
- YVEVKEGKTWKQICDKHWTAKNSE — lower, 2.33
- YVEVKEGKTWKQICDKHWTAKNSG — lower, 1.53
- YVEVKEGKTWKQICDKHWTAKNSA — lower, 2.42
- YVEVKEGKTWKQICDKHWTAKNSY — lower, 3.45
- YVEVKEGKTWKQICDKHWTAKNSP — lower, 1.69
- YVEVKEGKTWKQICDKHWTAKNSM — lower, 2.09
- YVEVKEGKTWKQICDKHWTAKNSN — lower, 2.48
- YVEVKEGKTWKQICDKHWTAKNSK — lower, 2.76
- YVIVKEGKTWKQICDKHWTAKNSR — lower, 2.53
- YVHVKEGKTWKQICDKHWTAKNSR — lower, 2.92
- YVLVKEGKTWKQICDKHWTAKNSR — lower, 2.58
- YVQVKEGKTWKQICDKHWTAKNSR — lower, 1.95
- YVYVKEGKTWKQICDKHWTAKNSR — lower, 2.73
- YVAVKEGKTWKQICDKHWTAKNSR — higher, 4.18
- YVMVKEGKTWKQICDKHWTAKNSR — lower, 1.06
- YVEVKEGKTEKQICDKHWTAKNSR — lower, 2.99
- YVEVKEGKTCKQICDKHWTAKNSR — lower, 2.17
- YVEVKEGKTPKQICDKHWTAKNSR — lower, 2.69
- YVEVKEGKTDKQICDKHWTAKNSR — lower, 3.03
- YVEVKEGKTQKQICDKHWTAKNSR — lower, 2.7
- YVEVKEGKTSKQICDKHWTAKNSR — lower, 2.73
- YVEVKEGKTAKQICDKHWTAKNSR — lower, 2.42
- YVEVKEGKTGKQICDKHWTAKNSR — lower, 2.23
- YVEVKEGKTLKQICDKHWTAKNSR — lower, 2.46
- YVEVKEGKTHKQICDKHWTAKNSR — lower, 2.44
- YVEVKEGKTWKQQCDKHWTAKNSR — lower, 2.5
- YVEVKEGKTWKQLCDKHWTAKNSR — lower, 1.4
- YVEVKEGKTWKQACDKHWTAKNSR — lower, 2.73
- YVEVKEGKTWKQDCDKHWTAKNSR — lower, 3.54
- YVEVKEGKTWKQTCDKHWTAKNSR — lower, 2.68
- YVEVKEGKTWKQMCDKHWTAKNSR — lower, 2.19
- YVEVKEGKTWKQWCDKHWTAKNSR — lower, 2.25
- YVEVKEGKTWKQKCDKHWTAKNSR — lower, 2.81
- YVEVKEGKTWKQSCDKHWTAKNSR — lower, 2.38
- YVEVKEGKTWKQHCDKHWTAKNSR — lower, 2.42
- YVEVKEGKTWKQICDKHWKAKNSR — lower, 1.87
- YVEVKEGKTWKQICDKHWVAKNSR — lower, 2.26
- YVEVKEGKTWKQICDKHWAAKNSR — lower, 1.45
- YVEVKEGKTWKQICDKHWHAKNSR — lower, 1.78
- YVEVKEGKTWKQICDKHWDAKNSR — lower, 2.34
- YVEVKEGKTWKQICDKHWGAKNSR — lower, 2.56
- YVEVKEGKTWKQICDKHWQAKNSR — lower, 3.17
- YVEVKEGKTWKQICDKHWLAKNSR — lower, 1.39
- YVEVKEGKTWKQICDKHWNAKNSR — lower, 2.95
- NVEVKEGKTWKQICDKHWTAKNSR — lower, 3.93
- AVEVKEGKTWKQICDKHWTAKNSR — lower, 3.4
- IVEVKEGKTWKQICDKHWTAKNSR — lower, 2.68
- WVEVKEGKTWKQICDKHWTAKNSR — lower, 2.29
- KVEVKEGKTWKQICDKHWTAKNSR — lower, 3.84
- EVEVKEGKTWKQICDKHWTAKNSR — lower, 3.46
- DVEVKEGKTWKQICDKHWTAKNSR — lower, 3.52
- YVEMKEGKTWKQICDKHWTAKNSR — lower, 1.82
- YVESKEGKTWKQICDKHWTAKNSR — lower, 2.73
- YVELKEGKTWKQICDKHWTAKNSR — lower, 3.89
- YVERKEGKTWKQICDKHWTAKNSR — lower, 2.1
- YVEQKEGKTWKQICDKHWTAKNSR — lower, 1.51
- YVEYKEGKTWKQICDKHWTAKNSR — lower, 1.14
- YVEEKEGKTWKQICDKHWTAKNSR — lower, 1.42
- YVEFKEGKTWKQICDKHWTAKNSR — lower, 2.36
- YVEVKEGKTWKQICDKHWTAKWSR — lower, 3.39
- YVEVKEGKTWKQICDKHWTAKGSR — lower, 2.13
- YVEVKEGKTWKQICDKHWTAKDSR — lower, 2.42
- YVEVKEGKTWKQICDKHWTAKESR — lower, 2.25
- YVEVKEGKTWKQICDKHWTAKHSR — lower, 2.99
- YVEVKEGKTWKQICDKHWTAKRSR — lower, 1.8
- YVEVKEGKTWKQICDKHWTAKISR — lower, 2.8
- YVEVKEGKTWKQICDKHWTAKSSR — lower, 1.92
- YVEVKEGKTWKQICDKHWTAKPSR — lower, 1.89
- YVEVKEGKTWKQICDKHWTAKVSR — lower, 2.79
- YVEVKEGKTWKQICDKHWTAKYSR — lower, 2.23
- YFEVKEGKTWKQICDKHWTAKNSR — lower, 2.21
- YPEVKEGKTWKQICDKHWTAKNSR — lower, 2.12
- YQEVKEGKTWKQICDKHWTAKNSR — lower, 2.16
- YEEVKEGKTWKQICDKHWTAKNSR — lower, 3.7
- YWEVKEGKTWKQICDKHWTAKNSR — lower, 1.98
- YTEVKEGKTWKQICDKHWTAKNSR — lower, 2.22
- YREVKEGKTWKQICDKHWTAKNSR — lower, 3.03
- YVEVKEGKTWKQICDAHWTAKNSR — lower, 2.08
- YVEVKEGKTWKQICDLHWTAKNSR — lower, 2.42
- YVEVKEGKTWKQICDIHWTAKNSR — lower, 2.32
- YVEVKEGKTWKQICDFHWTAKNSR — lower, 2.02
- YVEVKEGKTWKQICDVHWTAKNSR — lower, 2.46
- YVEVKEGKTWKQICDSHWTAKNSR — lower, 3.34
- YVEVKEGKTWKQICDGHWTAKNSR — lower, 3.14
- YVEVKEGKTWKQICDHHWTAKNSR — lower, 2.83
- YVEVKEGKTWKQICDRHWTAKNSR — lower, 3.43
- YVEVKEGKTWKQIEDKHWTAKNSR — lower, 2.5
- YVEVKEGKTWKQIIDKHWTAKNSR — lower, 2.16
- YVEVKEGKTWKQIYDKHWTAKNSR — lower, 1.93
- YVEVKEGKTWKQILDKHWTAKNSR — lower, 1.8
- YVEVKEGKTWKQIGDKHWTAKNSR — lower, 2.31
- YVEVKEGKTWKQIVDKHWTAKNSR — lower, 1.93
- YVEVKEGKTWKQICDKHFTAKNSR — lower, 2.54
- YVEVKEGKTWKQICDKHQTAKNSR — lower, 1.84
- YVEVKEGKTWKQICDKHRTAKNSR — lower, 1.5
- YVEVKEGKTWKQICDKHVTAKNSR — lower, 2.66
- YVEVKEGKTWKQICDKHPTAKNSR — lower, 1.94
- YVEVKEGKTWKQICDKHETAKNSR — lower, 2.52
- YVEVKEGKTWKQICDKHITAKNSR — lower, 1.96
- YVEVKEGKTWKQICDKHGTAKNSR — lower, 2
- YVEVKEGKTWKQICDKHNTAKNSR — lower, 2.58
- YVEVKEGKTWKQICDKHATAKNSR — lower, 2.76
- YVEVKEGKTWKQICDKFWTAKNSR — lower, 3.2
- YVEVKEGKTWKQICDKLWTAKNSR — lower, 2.81
- YVEVKEGKTWKQICDKTWTAKNSR — lower, 1.97
- YVEVKEGKTWKQICDKNWTAKNSR — lower, 2.89
- YVEVKEGKTWKQICDKQWTAKNSR — lower, 1.53
- YVEVKEGKTWKQICLKHWTAKNSR — lower, 2.62
- YVEVKEGKTWKQICSKHWTAKNSR — lower, 2.56
- YVEVKEGKTWKQICRKHWTAKNSR — lower, 1.8
- YVEVKEGKTWKQICWKHWTAKNSR — lower, 2.6
- YVEVKEGKTWKQICQKHWTAKNSR — lower, 2.56
- YVEVKEGKTWLQICDKHWTAKNSR — lower, 2.53
- YVEVKEGKTWPQICDKHWTAKNSR — lower, 1.99
- YVEVKEGKTWEQICDKHWTAKNSR — lower, 2.28
- YVEVKEGKTWTQICDKHWTAKNSR — lower, 2.93
- YVEVKEGKTWQQICDKHWTAKNSR — lower, 1.83
- YVEVKEGKTWRQICDKHWTAKNSR — lower, 2.52
- YVEVKEGKTWWQICDKHWTAKNSR — lower, 3.53

From the supplement of paper PMC10567573
